We go through eleven molecules from publication PMC12930380, “Overcoming Ligand Discovery Challenges: Developing Peptide-Based Tracers for SPSB2” (ACS Chemical Biology, 2025).

The term ΔTm denotes the shift of the melting midpoint relative to a reference. For orientation: koff means a measure of how fast the partners let go of each other. A word on the kon: it is the rate constant with which the complex forms. One may read the EC50 as the midpoint of the concentration-response curve.

Bridge positions count the residues as written; N and C are the ends. Square brackets hold non-standard residues; d marks the D form. Primed or numbered codes have the meaning given here. Ends that are not written are not given here. Peptide text beside a SMILES is read from it. * marks the point of attachment. X1 = O=C(CCC1=[N+]2C(=Cc3ccc(-c4ccc[nH]4)n3[B-]2(F)F)C=C1)*; PEG4′ = tetra(ethylene glycol) spacer; PEG4 = NCCOCCOCCOCCOCCC(=O)O; PEG4″ = not defined here

The target of data set [1] is T1, hSPSB2^SPRY (Homo sapiens, UniProt Q99619).
T1 construct: Human His6-SPSB2^SPRY (86–219) was expressed as a fusion construct; made in house; host or cells: Escherichia coli BL21(DE3)
T1 sequence (Q99619 26-219 limits assumed): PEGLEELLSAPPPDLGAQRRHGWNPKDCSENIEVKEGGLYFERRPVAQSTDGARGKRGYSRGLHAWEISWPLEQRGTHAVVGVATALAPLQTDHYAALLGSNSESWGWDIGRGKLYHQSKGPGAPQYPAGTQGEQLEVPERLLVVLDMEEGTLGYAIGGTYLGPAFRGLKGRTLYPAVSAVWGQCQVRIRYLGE
The data set can be described thus: Differential scanning fluorimetry (thermal shift). The data set is classed as binding. The settings on record: DSF, 50 μM peptide, 5 μM His-hSPSB2^SPRY, 30 mM HEPES pH 7.5, 5% DMSO, mean ± SD (n = 4); for Mean Tm: DMSO control 43.2 ± 0.1. The method, then:
For peptide screening, 50 μM peptide was added to 5 μM His-hSPSB2^SPRY diluted in buffer containing 30 mM HEPES pH 7.5, 100 mM NaCl, 1 mM TCEP, 5x SYPRO Orange and 5% DMSO as quadruplicates. Thermal shift analyses were carried out using a QuantStudio 5 Real-Time PCR System (Applied Biosystems) with a temperature gradient ranging from 25 to 95 °C at an increase of 0.05 °C/s. Data analysis was performed by fitting a Boltzmann sigmoidal curve to the raw values using the Protein Thermal Shift software (Applied Biosystems).
In general terms: In DSF a fluorescence change marks the thermal transition of the protein.

The target of data set [2] is T1, hSPSB2^SPRY. The data set can be described thus: Surface plasmon resonance single cycle kinetics. The data set is classed as binding. The note with it: immobilized His-hSPSB2^SPRY; for koff / kon: mean ± SD (n = 3); for koff: read-out: SPR koff (dissociation rate constant); for kon: read-out: SPR kon (association rate constant); for SPR binding behaviour (qualitative): no KD determined. The method, then:
Surface Plasmon Resonance experiments were conducted on a Biacore T200 instrument with a Series S Sensor Chip CM5 (Cytiva) and 10 mM HEPES pH 7.5, 150 mM NaCl, 0.5 mM TCEP, 0.05% Tween20 and 2% DMSO for the running buffer. His-hSPSB2^SPRY was diluted to 5 μg/mL in Acetate pH 5.5 and immobilized at 10 μL/min to reach 400–700 RU response levels on Flow-channel (FC) 2–4 for triplicates. Immobilization was performed via standard amine coupling procedure by injecting a mixture of 483 mM EDC and […] for activation with a subsequent injection of 1 M ethanolamine for deactivation. FC1 was used as a reference surface without protein-injection. Kinetic titration experiments were performed using a single-cycle kinetics procedure, with five peptide concentrations (0.8 nM to 1 μM) injected for 150 s each at a flow rate of 30 μL/min, followed by a dissociation phase of 600 s. After each peptide titration, multiple buffer injections were performed to reach a stable baseline. Solvent correction and blank injections were also included. After referencing, blank subtraction, and solvent correction, the data were analyzed using the Biacore T200 evaluation software. Sensorgrams with overlaid fit were replotted using GraphPad Prism version 8.0.1.
(In general: In SPR one partner is held on a chip, and binding of the other changes the refractive index at the surface.)

The test system of another data set is HCT116 cells. The data set can be described thus: CellTiter-Glo cytotoxicity assay. The data set is classed as cell-based. The note with it: 0.39 μM to 50 μM, 2 h incubation, 37 °C, n = 6. The method, then:
For cytotoxicity measurements, 10 μL HCT116 cells in Dulbecco’s Modified Eagle Medium (DMEM) were seeded at 2*10^5 cells/mL into a white 384-well-flat-bottom plate. […] Ten μL CellTiter-Glo 2.0 Reagent (Promega) was added to each well, followed by an incubation of 10 min at RT. Luminescence was measured, using a PheraSTAR FSX plate reader. Data was normalized to cells treated with 1% DMSO (100% survival control) and digitonin (0% survival control), then plotted using GraphPad Prism version 8.0.1.

For data set [3], the target named is Human His6-SPSB2^SPRY (86–219) (human) (UniProt Q99619). The data set can be described thus: differential scanning fluorimetry; 50 μM peptide added to 5 μM His-hSPSB2^SPRY; 30 mM HEPES pH 7.5, 100 mM NaCl, 1 mM TCEP, 5x SYPRO Orange, 5% DMSO; 25 to 95 °C; quadruplicates.
Data set [4] addresses T2, C-terminally Nanoluc-tagged human full length SPSB2 (human, UniProt Q99619 1-263).
T2 construct: also called SPRY domain-containing SOCS box protein 2; source: HCT116, transfected, in intact cells; not shown: NanoLuc, C-terminal, kept
T2 sequence (looked up): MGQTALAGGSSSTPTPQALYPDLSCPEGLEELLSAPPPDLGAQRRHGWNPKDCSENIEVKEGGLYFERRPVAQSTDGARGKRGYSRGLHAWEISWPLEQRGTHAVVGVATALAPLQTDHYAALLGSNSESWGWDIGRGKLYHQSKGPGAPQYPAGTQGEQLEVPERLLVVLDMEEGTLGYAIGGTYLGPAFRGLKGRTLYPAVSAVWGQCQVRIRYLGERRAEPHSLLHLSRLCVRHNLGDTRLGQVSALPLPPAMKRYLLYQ
The data set can be described thus: FRET or BRET; NanoBRET displacement in intact HCT116 cells transfected with SPSB2-NanoLuc; 30 nM cyclic TAT tracer, cyclic TAT peptide titrated 6 nM to 50 uM, triplicates. The note with it: one partner purified. A general note: BRET reads energy transfer from a luciferase to a nearby fluorophore.

Data set [5] has as its target T2, C-terminally Nanoluc-tagged human full …. The data set can be described thus: FRET or BRET; NanoBRET displacement in intact HCT116 cells transfected with SPSB2-NanoLuc; 20 nM cyclic TAT tracer, cyclic TAT peptide titrated 6 nM to 50 uM, triplicates (biological replicate). The settings on record: one partner purified.
Data set [6] addresses T3, C-terminally Nanoluc-tagged human full length SPSB2 (human, UniProt Q99619 1-263).
T3 construct: source: HCT116, transfected (FuGENE HD), in intact or digitonin-permeabilized cells; not shown: NanoLuc, C-terminal, kept
T3 sequence (looked up): T2 sequence (looked up)
The data set can be described thus: FRET or BRET; NanoBRET tracer titration, apparent KD; 39 pM - 2.5 μM tracer titrated to HCT116 cells transfected with SPSB2-NanoLuc and permeabilized with 25 μM digitonin. The note with it: one partner purified.

Data set [7] has as its target T3, C-terminally Nanoluc-tagged human full …. The data set can be described thus: FRET or BRET; NanoBRET tracer titration, apparent KD; 39 pM - 2.5 μM tracer titrated to intact HCT116 cells transfected with SPSB2-NanoLuc; 2 h at 37 °C. The settings on record: one partner purified.
Data set [8] deals with Human His6-SPSB2^SPRY (86–219) (human) (UniProt Q99619). The data set can be described thus: SPR.
The target is the same in data set [9]. The data set can be described thus: differential scanning fluorimetry.

Turning to `CC[C@H](C)[C@H](NC(=O)[C@H](CC(=O)O)NC(=O)[C@H](CCCCN)NC(=O)[C@H](CCC(=O)O)NC(=O)[C@H](CCC(=O)O)NC(=O)[C@@H](N)CCCCN)C(=O)N[C@@H](CC(N)=O)C(=O)N[C@@H](CC(N)=O)C(=O)N[C@@H](CC(N)=O)C(=O)N[C@H](C(=O)N[C@@H](CCCCN)C(=O)N[C@@H](CCCCN)C(=O)N[C@H](C(=O)O)[C@@H](C)O)C(C)C` [iNOS peptide, reference compound] (H-KEEKDINNNVKKT-OH), at hSPSB2^SPRY [1], the shift in melting temperature (ΔTm) at 50 µM was 14.1 ± 0.1 °C. In addition, on hSPSB2^SPRY [2], the koff came out at 0.0024 s⁻¹ and the kon was 2.9e+06 M⁻¹ s⁻¹.
For the molecule “PEG4-YGRKKRRQRRRGSGVDINNN [Linear TAT peptide]”, on hSPSB2^SPRY [1], the ΔTm amounted to 10.6 ± 0.1 °C and the “Mean Tm” value was 53.8 ± 0.1 °C. Moreover, the “SPR binding behaviour (qualitative)” value on hSPSB2^SPRY [2] is “non 1:1 binding interaction”.
`CC[C@H](C)[C@H](NC(=O)[C@H](CC(=O)O)NC(=O)[C@@H](NC(=O)CNC(=O)[C@H](CO)NC(=O)CNC(=O)[C@@H]1CSSC[C@H](NC(=O)CCOCCOCCOCCOCCN)C(=O)N[C@@H](Cc2ccc(O)cc2)C(=O)NCC(=O)N[C@@H](CCCNC(=N)N)C(=O)N[C@@H](CCCCN)C(=O)N[C@@H](CCCCN)C(=O)N[C@@H](CCCNC(=N)N)C(=O)N[C@@H](CCCNC(=N)N)C(=O)N[C@@H](CCC(N)=O)C(=O)N[C@@H](CCCNC(=N)N)C(=O)N[C@@H](CCCNC(=N)N)C(=O)N[C@@H](CCCNC(=N)N)C(=O)N1)C(C)C)C(=O)N[C@@H](CC(N)=O)C(=O)N[C@@H](CC(N)=O)C(=O)N[C@@H](CC(N)=O)C(=O)O` [Cyclic TAT peptide] (H-[PEG4]CYGRKKRRQRRRCGSGVDINNN-OH; disulfide 2-14; N-terminus and C-terminus assumed): the “Impact on cell viability (CellTiter-Glo, qualitative)” value with HCT116 cells was “no impact on cell viability at any tested concentration”. Also, on hSPSB2^SPRY [1], the ΔTm at 50 µM stood at 8.1 ± 0.1 °C and the “Mean Tm” value came to 51.4 ± 0.1 °C. Further, the “SPR binding behaviour (qualitative)” value at hSPSB2^SPRY [2] is given as “non 1:1 binding interaction”.
Turning to `CC[C@H](C)[C@H](NC(=O)[C@H](CC(=O)O)NC(=O)[C@@H](NC(=O)CNC(=O)[C@H](CO)NC(=O)CNC(=O)[C@H](CC(=O)O)NC(=O)CNC(=O)[C@H](CCCNC(=N)N)NC(=O)CCOCCOCCOCCOCCN)C(C)C)C(=O)N[C@@H](CC(N)=O)C(=O)N[C@@H](CC(N)=O)C(=O)N[C@@H](CC(N)=O)C(=O)O` [Linear RGD peptide] (H-[PEG4]RGDGSGVDINNN-OH; N-terminus and C-terminus assumed), on hSPSB2^SPRY [1], the ΔTm at 50 µM was determined as 10.9 ± 0.2 °C and the “Mean Tm” value turned out to be 54.1 ± 0.2 °C. At hSPSB2^SPRY [2], the koff was 0.032 s⁻¹ and the kon was 200000 M⁻¹ s⁻¹.
As for `CC[C@H](C)[C@H](NC(=O)[C@H](CC(=O)O)NC(=O)[C@@H](NC(=O)CNC(=O)[C@H](CO)NC(=O)CNC(=O)[C@@H]1CSSC[C@H](NC(=O)CCOCCOCCOCCOCCNC(=O)CCC2=[N+]3C(=Cc4ccc(-c5ccc[nH]5)n4[B-]3(F)F)C=C2)C(=O)N[C@@H](Cc2ccc(O)cc2)C(=O)NCC(=O)N[C@@H](CCCNC(=N)N)C(=O)N[C@@H](CCCCN)C(=O)N[C@@H](CCCCN)C(=O)N[C@@H](CCCNC(=N)N)C(=O)N[C@@H](CCCNC(=N)N)C(=O)N[C@@H](CCC(N)=O)C(=O)N[C@@H](CCCNC(=N)N)C(=O)N[C@@H](CCCNC(=N)N)C(=O)N[C@@H](CCCNC(=N)N)C(=O)N1)C(C)C)C(=O)N[C@@H](CC(N)=O)C(=O)N[C@@H](CC(N)=O)C(=O)N[C@@H](CC(N)=O)C(=O)O` [Cyclic TAT tracer] ({X1-PEG4}-CYGRKKRRQRRRCGSGVDINNN-OH; disulfide 1-13), in the data set with HCT116 cells, the “Concentration leading to reduced cell survival (CellTiter-Glo)” value was “above 10 μM”.
With [PEG4′]CYGRKKRRQRRRCGSGVDINNN (disulfide 2-14) [cyclic TAT peptide], in data set [3], the shift in melting temperature (ΔTm) worked out at 8.1 °C.

B1: cyclic TAT peptide (PEG4-CYGRKKRRQRRRCGSGVDINNN) (peptide)
peptide: [PEG4′]CYGRKKRRQRRRCGSGVDINNN
modifications: disulfide 2-14
notes: also called cyclic TAT peptide variant; source: synthetic peptide (custom synthesized by Synpel Chemical, GeneCust and GenScript Biotech)
As for B1, the EC50 was about 386 nM in [4] and about 200 nM in [5].

B2: Cyclic TAT tracer (peptide)
peptide: {BODIPY 576/589-PEG4″}-CYGRKKRRQRRRCGSGVDINNN
modifications: disulfide 1-13
notes: also called fluorophore-tagged cyclic TAT tracer; source: synthetic peptide (custom synthesized by Synpel Chemical, GeneCust and GenScript Biotech)
In the case of B2, the Kd in data set [6] is 346 nM; in [7], 86 nM.
Turning to [PEG4′]YGRKKRRQRRRGSGVDINNN [linear TAT peptide], the shift in melting temperature (ΔTm) in data set [3] turned out to be 10.6 °C.
In the case of KEEKDINNNVKKT [iNOS peptide], in data set [8], the Kd stood at 0.8 nM, the dissociation rate constant (koff) worked out at 0.0024 s⁻¹ and the kon came to 2.9e+06 M⁻¹ s⁻¹. The ΔTm in data set [9] was determined as 14.1 °C.
For [PEG4′]RGDGSGVDINNN [linear RGD peptide] the same measures were 162 nM, 0.032 s⁻¹, 200000 M⁻¹ s⁻¹ and 10.9 °C.
